# Reference: PMC6648325
# “And” between values parts separate entries of the source, which are not always exact repeats. Identical values can stand only once.
# T1: Cys106-oxidized DJ-1 recombinant protein (human), Q99497
# T1 chain: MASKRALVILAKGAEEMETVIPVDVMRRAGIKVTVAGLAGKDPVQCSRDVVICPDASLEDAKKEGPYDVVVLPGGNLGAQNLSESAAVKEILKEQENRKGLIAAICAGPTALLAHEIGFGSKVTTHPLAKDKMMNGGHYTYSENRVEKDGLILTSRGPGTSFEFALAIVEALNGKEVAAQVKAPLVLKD
# T2: DJ-1 recombinant protein (human), Q99497
# T2 chain: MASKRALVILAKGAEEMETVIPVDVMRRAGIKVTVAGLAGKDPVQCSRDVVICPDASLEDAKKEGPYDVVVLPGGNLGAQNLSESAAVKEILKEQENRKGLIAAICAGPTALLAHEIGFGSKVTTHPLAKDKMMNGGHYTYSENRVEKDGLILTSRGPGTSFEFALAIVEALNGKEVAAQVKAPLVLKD
# Legend:
# Conditions in all cases: remark: other sources report otherwise
# [1] = molecular target: T1, Cys106-oxidized DJ-1 recombinant …; assay: high-speed atomic force microscopy
# [2] = molecular target: T1, Cys106-oxidized DJ-1 recombinant …; assay: SEC
# [3] = molecular target: T1, Cys106-oxidized DJ-1 recombinant …; assay: SDS-PAGE of HMW bands
# [4] = molecular target: T2, DJ-1 recombinant protein (human), Q99497; assay: high-speed atomic force microscopy
# [5] = molecular target: T2, DJ-1 recombinant protein (human), Q99497; assay: SEC
Binder,stoichiometry N [1],stoichiometry N [2],stoichiometry N [3],stoichiometry N [4],stoichiometry N [5]
"Cys106-oxidized DJ-1 recombinant protein, Q99497 1-189 (natural protein) MASKRALVILAKGAEEMETVIPVDVMRRAGIKVTVAGLAGKDPVQCSRDVVICPDASLEDAKKEGPYDVVVLPGGNLGAQNLSESAAVKEILKEQENRKGLIAAICAGPTALLAHEIGFGSKVTTHPLAKDKMMNGGHYTYSENRVEKDGLILTSRGPGTSFEFALAIVEALNGKEVAAQVKAPLVLKD",4 and 6,2,2 and 4,,
"DJ-1 recombinant protein, Q99497 1-189 (natural protein) MASKRALVILAKGAEEMETVIPVDVMRRAGIKVTVAGLAGKDPVQCSRDVVICPDASLEDAKKEGPYDVVVLPGGNLGAQNLSESAAVKEILKEQENRKGLIAAICAGPTALLAHEIGFGSKVTTHPLAKDKMMNGGHYTYSENRVEKDGLILTSRGPGTSFEFALAIVEALNGKEVAAQVKAPLVLKD",,,,2,2
